Laboratory results as given in article PMC5264588, “ER residency of the ceramide phosphoethanolamine synthase SMSr relies on homotypic oligomerization mediated by its SAM domain” (Scientific Reports, 2017).
Values joined by “and” are separate entries in the source; they are usually repeats but may differ in a detail not shown here. Identical values can stand only once.

B1: V5/His6-tagged SMSr (enzyme, human, UniProt Q96LT4 1-415, looked up)
chain: MAGPNQLCIRRWTTKHVAVWLKDEGFFEYVDILCNKHRLDGITLLTLTEYDLRSPPLEIKVLGDIKRLMLSVRKLQKIHIDVLEEMGYNSDSPMGSMTPFISALQSTDWLCNGELSHDCDGPITDLNSDQYQYMNGKNKHSVRRLDPEYWKTILSCIYVFIVFGFTSFIMVIVHERVPDMQTYPPLPDIFLDSVPRIPWAFAMTEVCGMILCYIWLLVLLLHKHRSILLRRLCSLMGTVFLLRCFTMFVTSLSVPGQHLQCTGKIYGSVWEKLHRAFAIWSGFGMTLTGVHTCGDYMFSGHTVVLTMLNFFVTEYTPRSWNFLHTLSWVLNLFGIFFILAAHEHYSIDVFIAFYITTRLFLYYHTLANTRAYQQSRRARIWFPMFSFFECNVNGTVPNEYCWPFSKPAIMKRLIG
notes: SMSr (SAMD8), ceramide phosphoethanolamine synthase, human, UniProt Q96LT4; the cDNA was PCR amplified and cloned with a C-terminal V5/His6 tag; also called SMSr-V5; SAMD8; source: HeLa, transfected (pcDNA3.1/V5-His TOPO), in detergent extract; not shown: V5, C-terminal, kept; His6, C-terminal, kept

Assays:
[1] = biological target: the molecule itself; test: cross-linking; intact HeLa cells (wild-type or SMSr-/-) treated with DSP (0-50 μM, 15 min, RT), lysed with detergent and 10 mM NEM; anti-HA or anti-V5 immunoprecipitation or Ni-NTA, immunoblot against the same tag
[2] = biological target: the molecule itself; test: SDS-resistant oligomers on SDS-PAGE of affinity-purified protein; HeLa cells transfected with one V5(/His6)-tagged construct; anti-V5 immunoprecipitates or Ni-NTA eluates, non-reducing SDS-PAGE, anti-V5 immunoblot; no cross-linker; oligomers mostly lost with 10 mM NEM in lysis or 100 mM DTT
V5/His6-tagged SMSr = biological target: B1; test: co-IP; detergent extracts of HeLa cells co-transfected with HA-tagged and V5/His6-tagged constructs; anti-V5 immunoprecipitation, immunoblot with anti-V5 and anti-HA; non-reducing SDS-PAGE; no NEM named; details: partners not purified
[3] = biological target: the molecule itself; test: cross-linking; yeast cells expressing V5/His6-tagged SMSr treated with DSP (0-50 μM, 15 min), lysed, anti-V5 immunoblot

Binder | stoichiometry N [1] | other results
V5/His6-tagged SMSrΔSAM (domain or fragment, human, UniProt Q96LT4 79-415, looked up, SMSr (SAMD8), human, UniProt Q96LT4, without the first 78 N-terminal residues (SAM domain deleted); also called SMSrΔSAM-V5; SAM-domain truncation mutant; source: HeLa, transfected, in detergent extract; not shown: V5, C-terminal, kept; His6, C-terminal, kept) HIDVLEEMGYNSDSPMGSMTPFISALQSTDWLCNGELSHDCDGPITDLNSDQYQYMNGKNKHSVRRLDPEYWKTILSCIYVFIVFGFTSFIMVIVHERVPDMQTYPPLPDIFLDSVPRIPWAFAMTEVCGMILCYIWLLVLLLHKHRSILLRRLCSLMGTVFLLRCFTMFVTSLSVPGQHLQCTGKIYGSVWEKLHRAFAIWSGFGMTLTGVHTCGDYMFSGHTVVLTMLNFFVTEYTPRSWNFLHTLSWVLNLFGIFFILAAHEHYSIDVFIAFYITTRLFLYYHTLANTRAYQQSRRARIWFPMFSFFECNVNGTVPNEYCWPFSKPAIMKRLIG | 2 | –
B1 | – | stoichiometry N [2]: 3 and 6
HA-tagged SMSr (enzyme, human, UniProt Q96LT4 1-415, looked up, SMSr (SAMD8), ceramide phosphoethanolamine synthase, human, UniProt Q96LT4; also called SMSr-HA; full-length SMSr-HA; source: HeLa (wild-type or SMSr-/-), transfected, in detergent extract; not shown: HA, C-terminal, kept) MAGPNQLCIRRWTTKHVAVWLKDEGFFEYVDILCNKHRLDGITLLTLTEYDLRSPPLEIKVLGDIKRLMLSVRKLQKIHIDVLEEMGYNSDSPMGSMTPFISALQSTDWLCNGELSHDCDGPITDLNSDQYQYMNGKNKHSVRRLDPEYWKTILSCIYVFIVFGFTSFIMVIVHERVPDMQTYPPLPDIFLDSVPRIPWAFAMTEVCGMILCYIWLLVLLLHKHRSILLRRLCSLMGTVFLLRCFTMFVTSLSVPGQHLQCTGKIYGSVWEKLHRAFAIWSGFGMTLTGVHTCGDYMFSGHTVVLTMLNFFVTEYTPRSWNFLHTLSWVLNLFGIFFILAAHEHYSIDVFIAFYITTRLFLYYHTLANTRAYQQSRRARIWFPMFSFFECNVNGTVPNEYCWPFSKPAIMKRLIG | 3 and 6 | stoichiometry N (V5/His6-tagged SMSr): 3 and 6
HA-tagged SMSr^D348E (enzyme, human, UniProt Q96LT4 1-415, looked up, SMSr (SAMD8), human, UniProt Q96LT4, with D348E; also called enzyme-dead SMSr; source: SMSr-/- HeLa, transfected, in detergent extract; not shown: HA, C-terminal, kept) MAGPNQLCIRRWTTKHVAVWLKDEGFFEYVDILCNKHRLDGITLLTLTEYDLRSPPLEIKVLGDIKRLMLSVRKLQKIHIDVLEEMGYNSDSPMGSMTPFISALQSTDWLCNGELSHDCDGPITDLNSDQYQYMNGKNKHSVRRLDPEYWKTILSCIYVFIVFGFTSFIMVIVHERVPDMQTYPPLPDIFLDSVPRIPWAFAMTEVCGMILCYIWLLVLLLHKHRSILLRRLCSLMGTVFLLRCFTMFVTSLSVPGQHLQCTGKIYGSVWEKLHRAFAIWSGFGMTLTGVHTCGDYMFSGHTVVLTMLNFFVTEYTPRSWNFLHTLSWVLNLFGIFFILAAHEHYSIEVFIAFYITTRLFLYYHTLANTRAYQQSRRARIWFPMFSFFECNVNGTVPNEYCWPFSKPAIMKRLIG | 6 and 3 | –
HA-tagged SMSr^L62E/G63D/K66E (SMSr^OD) (enzyme, human, UniProt Q96LT4 1-415, looked up, SMSr (SAMD8), human, UniProt Q96LT4, with L62E, G63D and K66E; also called oligomerization-defective triple mutant; source: HeLa (wild-type or SMSr-/-), transfected, in detergent extract; not shown: HA, C-terminal, kept) MAGPNQLCIRRWTTKHVAVWLKDEGFFEYVDILCNKHRLDGITLLTLTEYDLRSPPLEIKVEDDIERLMLSVRKLQKIHIDVLEEMGYNSDSPMGSMTPFISALQSTDWLCNGELSHDCDGPITDLNSDQYQYMNGKNKHSVRRLDPEYWKTILSCIYVFIVFGFTSFIMVIVHERVPDMQTYPPLPDIFLDSVPRIPWAFAMTEVCGMILCYIWLLVLLLHKHRSILLRRLCSLMGTVFLLRCFTMFVTSLSVPGQHLQCTGKIYGSVWEKLHRAFAIWSGFGMTLTGVHTCGDYMFSGHTVVLTMLNFFVTEYTPRSWNFLHTLSWVLNLFGIFFILAAHEHYSIDVFIAFYITTRLFLYYHTLANTRAYQQSRRARIWFPMFSFFECNVNGTVPNEYCWPFSKPAIMKRLIG | 6 and 3 and 2 | –
V5/His6-tagged SMSr expressed in yeast (enzyme, human, UniProt Q96LT4 1-415, looked up, SMSr (SAMD8), human, UniProt Q96LT4; also called SMSr-V5; pYES2.1/SMSr-V5-His TOPO; source: Saccharomyces cerevisiae IAY11, transformed (pYES2.1/SMSr-V5-His TOPO), in lysate) MAGPNQLCIRRWTTKHVAVWLKDEGFFEYVDILCNKHRLDGITLLTLTEYDLRSPPLEIKVLGDIKRLMLSVRKLQKIHIDVLEEMGYNSDSPMGSMTPFISALQSTDWLCNGELSHDCDGPITDLNSDQYQYMNGKNKHSVRRLDPEYWKTILSCIYVFIVFGFTSFIMVIVHERVPDMQTYPPLPDIFLDSVPRIPWAFAMTEVCGMILCYIWLLVLLLHKHRSILLRRLCSLMGTVFLLRCFTMFVTSLSVPGQHLQCTGKIYGSVWEKLHRAFAIWSGFGMTLTGVHTCGDYMFSGHTVVLTMLNFFVTEYTPRSWNFLHTLSWVLNLFGIFFILAAHEHYSIDVFIAFYITTRLFLYYHTLANTRAYQQSRRARIWFPMFSFFECNVNGTVPNEYCWPFSKPAIMKRLIG | – | stoichiometry N [3]: 3 and 6
